Test results from patent publication US20100119506A1, “Effectors of PAR-2 Activation and Their Use in the Modulation of Inflammation” (BOEHRINGER INGELHEIM INTERNATIONAL GMBH, priority 2008, published 2010).

Tests used:
PAR-2 [1] = molecular target: T1, PAR-2 (Homo sapiens, UniProt P55085); experiment: Binding to PAR-2 transfected HEK293 cells; type: cell-based; parameters: expressed in transfected cells; host or cells: HEK293; conditions: for Ratio of EC50 Fab EC50 IgG: HEK-PAR-2 binding; for EC50: Fab, read-out: Binding of Fab to HEK-PAR-2 (#3) (3RBO64) EC50
T1 sequence (P55085 26-397): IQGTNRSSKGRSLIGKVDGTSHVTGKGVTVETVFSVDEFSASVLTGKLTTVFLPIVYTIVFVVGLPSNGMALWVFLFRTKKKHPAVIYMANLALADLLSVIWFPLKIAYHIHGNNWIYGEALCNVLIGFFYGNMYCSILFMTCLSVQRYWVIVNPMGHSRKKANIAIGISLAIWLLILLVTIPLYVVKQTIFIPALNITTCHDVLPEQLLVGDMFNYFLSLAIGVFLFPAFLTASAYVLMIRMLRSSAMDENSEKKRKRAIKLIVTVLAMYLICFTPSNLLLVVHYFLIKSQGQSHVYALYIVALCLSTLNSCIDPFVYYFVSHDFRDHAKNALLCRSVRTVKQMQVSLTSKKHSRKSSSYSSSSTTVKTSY
Description: These Fabs were then converted to the IgG4_Pro (“IgG4p”) format. The IgG4_Pro antibodies consist of the variable VH and VL regions derived from corresponding Fabs fused to the constant regions of human IgG4 including a Ser241Pro mutation in the hinge region of the H-chain. The proline substitution in the hinge region is known to prevent the formation of half-molecules in natural human IgG4 molecules (Angal et al. (1993) Molec. Immunol. 30:105-108).

PAR-1 peptide = molecular target: T2, PAR-1 peptide (Homo sapiens, UniProt P25116); experiment: ELISA binding to PAR-1 peptide
T2 sequence (P25116 38-66 limits assumed): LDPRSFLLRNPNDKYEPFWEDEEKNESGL
Description: (§1) The molecular selectivity of antibodies for PAR-2 versus PAR-1 and PAR-4 was assessed using peptides derived from the N-terminal regions of all three PARs: […]

PAR-2 peptide = PAR-2 peptide (Homo sapiens, UniProt P55085); experiment: ELISA binding to PAR-2 peptide; conditions: peptide coupled to Transferrin
Description: as §1

PAR-4 peptide = molecular target: T3, PAR-4 peptide (Homo sapiens, UniProt Q96RI0, C54S); experiment: ELISA binding to PAR-4 peptide
T3 sequence (Q96RI0 44-71 C54S): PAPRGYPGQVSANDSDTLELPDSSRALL
Description: as §1

PAR-1 = molecular target: T4, PAR-1 (Homo sapiens, UniProt P25116); experiment: Thrombin-induced calcium response (FLIPR) in A549 cells; type: cell-based; conditions: antibody concentrations up to 300 nM
T4 construct: endogenous in cells; host or cells: A549
T4 sequence (P25116 22-425): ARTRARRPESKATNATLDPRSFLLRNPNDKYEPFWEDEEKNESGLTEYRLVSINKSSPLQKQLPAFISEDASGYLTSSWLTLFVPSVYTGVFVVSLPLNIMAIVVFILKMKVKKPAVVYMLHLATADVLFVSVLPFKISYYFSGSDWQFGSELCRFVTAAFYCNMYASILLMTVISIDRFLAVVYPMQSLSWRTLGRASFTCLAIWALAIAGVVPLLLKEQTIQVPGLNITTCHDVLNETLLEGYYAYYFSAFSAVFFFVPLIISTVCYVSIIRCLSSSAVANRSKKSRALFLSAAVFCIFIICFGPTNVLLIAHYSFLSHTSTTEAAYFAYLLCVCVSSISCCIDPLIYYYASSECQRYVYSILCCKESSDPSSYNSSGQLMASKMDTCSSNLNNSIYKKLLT
Description: (§2) Thrombin activates PAR-1, whereas PAR-2 is activated by trypsin in A549 cells.

PAR-2 [2] = molecular target: T1, PAR-2; experiment: Trypsin induced calcium response (FLIPR) in A549 cells; type: cell-based; parameters: expressing endogenous PAR-2; endogenous in cells; host or cells: A549; conditions: for inhibition of trypsin mediated calcium response/release in A549 (in words): full antibodies
Description: Using A549 cells, PAR-2 activation was measured by detecting the calcium response following trypsin stimulation. Fabs were tested in this assay for their ability to inhibit this response. […] Antibody concentrations are expressed as μg/ml (FIG. 6).
as §2

mouse PAR-2 = molecular target: T5, mouse PAR-2 (Mus musculus, UniProt P55086); experiment: FLIPR trypsin-induced calcium release in mouse LLC cells; type: cell-based
T5 construct: endogenous in cells; host or cells: LLC (mouse Lewis lung carcinoma)
T5 sequence (P55086 26-399): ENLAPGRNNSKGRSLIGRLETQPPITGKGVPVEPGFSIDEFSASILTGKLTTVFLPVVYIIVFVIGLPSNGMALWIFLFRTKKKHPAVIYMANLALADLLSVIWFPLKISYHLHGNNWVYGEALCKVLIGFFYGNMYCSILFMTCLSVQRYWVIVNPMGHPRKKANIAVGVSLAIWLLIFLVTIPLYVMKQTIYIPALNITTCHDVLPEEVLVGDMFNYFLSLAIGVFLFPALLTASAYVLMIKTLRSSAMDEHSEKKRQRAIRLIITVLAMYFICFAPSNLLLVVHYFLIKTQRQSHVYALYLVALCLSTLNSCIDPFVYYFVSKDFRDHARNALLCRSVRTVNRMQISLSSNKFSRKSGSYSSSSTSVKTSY
Description: To further assess functional cross-reactivity with mouse PAR-2, the antibodies were tested in FLIPR assays with the mouse Lewis lung carcinoma (LLC) cell line.

B1: Ab4999: affinity matured from Ab3777, L-CDR3 optimized; light chain SEQ ID NO:27, heavy chain SEQ ID NO:7 (antibody, V domains shown)
VH: QVQLVESGGGLVQPGGSLRLSCAASGFTFSSYAMNWVRQAPGKGLEWVSTISYSSSATSYADSVKGRFTISRDNSKNTLYLQMNSLRAEDTAVYYCARIQNDPMDVWGQGTLVTVSS
VL: DIELTQPPSVSVAPGQTARISCSGDNLGKKYVQWYQQKPGQAPVLVIYDDSNRPSGIPERFSGSNSGNTATLTISGTQAEDEADYYCQTWDYSSIRDETNVFGGGTKLTVLGQ
modifications: Antibody identified via phage display; Antibody modified via affinity maturation
- Ratio of EC50 Fab EC50 IgG (PAR-2 [1]): 0.3
- binding to PAR-1 peptide (in words) (PAR-1 peptide): did not exhibit detectable binding
- binding to PAR-2 peptide (in words) (PAR-2 peptide): specific binding
- binding to PAR-4 peptide (in words) (PAR-4 peptide): no binding

B2: Ab5151: cross-cloned: light chain of Ab4999 combined with the heavy chain of Ab5007 (antibody, V domains shown)
VH: QVQLVESGGGLVQPGGSLRLSCAASGFTFSSYAMNWVRQAPGKGLEWVSAISFSGHLTGYADSVKGRFTISRDNSKNTLYLQMNSLRAEDTAVYYCARIQNDPMDVWGQGTLVTVSS
VL: DIELTQPPSVSVAPGQTARISCSGDNLGKKYVQWYQQKPGQAPVLVIYDDSNRPSGIPERFSGSNSGNTATLTISGTQAEDEADYYCQTWDYSSIRDETNVFGGGTKLTVLGQ
- inhibition of the thrombin induced calcium response (in words) (PAR-1): no inhibition
- inhibition of trypsin mediated calcium response/release in A549 (in words) (PAR-2 [2]): significant inhibition
- binding to PAR-1 peptide (in words) (PAR-1 peptide): did not exhibit detectable binding
- binding to PAR-2 peptide (in words) (PAR-2 peptide): specific binding
- binding to PAR-4 peptide (in words) (PAR-4 peptide): no binding

B3: Par-C: codon-optimized anti-PAR-2 antibody; Ab4999 light chain (SEQ ID NO:37), Ab5007 or Ab5151 heavy chain (SEQ ID NO:39) (antibody, V domains shown)
VH: QVELVESGGGLVQPGGSLRLSCAASGFTFSSYAMNWVRQAPGKGLEWVSAISFSGHLTGYADSVKGRFTISRDNSKNTLYLQMNSLRAEDTAVYYCARIQNDPMDVWGQGTLVTVSS
VL: DIELTQPPSVSVAPGQTARISCSGDNLGKKYVQWYQQKPGQAPVLVIYDDSNRPSGIPERFSGSNSGNTATLTISGTQAEDEADYYCQTWDYSSIRDETNVFGGGTKLTVLGQ
modifications: Optimized cDNA sequence of variable region of Ab5007 or Ab5151 heavy chain; Optimized cDNA sequence of variable region of Ab4999 light chain
- inhibition of trypsin mediated calcium response/release in A549 (in words) (PAR-2 [2]): potent inhibition
- IC50 (PAR-2 [2]; trypsin stimulated, value (SD)): 1 nM
- inhibition of trypsin-induced calcium release in LLC cells (in words) (mouse PAR-2): efficient inhibition
- IC50 (mouse PAR-2; trypsin-induced, value (SD)): 0.7 nM

B4: Ab4997: affinity matured from Ab3777, H-CDR2 optimized; heavy chain SEQ ID NO:23, light chain SEQ ID NO:6 (antibody, V domains shown)
VH: QVQLVESGGGLVQPGGSLRLSCAASGFTFSSYAMNWVRQAPGKGLEWVSAISYNGKLKGYADSVKGRFTISRDNSKNTLYLQMNSLRAEDTAVYYCARIQNDPMDVWGQGTLVTVSS
VL: DIELTQPPSVSVAPGQTARISCSGDNLGKKYVQWYQQKPGQAPVLVIYDDSNRPSGIPERFSGSNSGNTATLTISGTQAEDEADYYCSSWDVGSDGWVFGGGTKLTVLGQ
modifications: Antibody modified via affinity maturation; Antibody identified via phage display
- EC50 (PAR-2 [1]): 3.03 nM
- Ratio of EC50 Fab EC50 IgG (PAR-2 [1]): 8.0

B5: Ab5003: affinity matured from Ab3777, H-CDR2 optimized; heavy chain SEQ ID NO:24, light chain SEQ ID NO:6 (antibody, V domains shown)
VH: QVQLVESGGGLVQPGGSLRLSCAASGFTFSSYAMNWVRQAPGKGLEWVSAISYKGHLTGYADSVKGRFTISRDNSKNTLYLQMNSLRAEDTAVYYCARIQNDPMDVWGQGTLVTVSS
VL: DIELTQPPSVSVAPGQTARISCSGDNLGKKYVQWYQQKPGQAPVLVIYDDSNRPSGIPERFSGSNSGNTATLTISGTQAEDEADYYCSSWDVGSDGWVFGGGTKLTVLGQ
modifications: Antibody modified via affinity maturation; Antibody identified via phage display
- EC50 (PAR-2 [1]): 7.03 nM
- Ratio of EC50 Fab EC50 IgG (PAR-2 [1]): 15.3

B6: Ab4994: affinity matured from Ab3777, H-CDR2 optimized; heavy chain SEQ ID NO:21, light chain SEQ ID NO:6 (antibody, V domains shown)
VH: QVQLVESGGGLVQPGGSLRLSCAASGFTFSSYAMNWVRQAPGKGLEWVSAISYSGHLTGYADSVKGRFTISRDNSKNTLYLQMNSLRAEDTAVYYCARIQNDPMDVWGQGTLVTVSS
VL: DIELTQPPSVSVAPGQTARISCSGDNLGKKYVQWYQQKPGQAPVLVIYDDSNRPSGIPERFSGSNSGNTATLTISGTQAEDEADYYCSSWDVGSDGWVFGGGTKLTVLGQ
modifications: Antibody modified via affinity maturation; Antibody identified via phage display
- EC50 (PAR-2 [1]): 1.9 nM
- Ratio of EC50 Fab EC50 IgG (PAR-2 [1]): 4.8

B7: Ab5007: affinity matured from Ab3777, H-CDR2 optimized; heavy chain SEQ ID NO:26, light chain SEQ ID NO:6 (antibody, V domains shown)
VH: QVQLVESGGGLVQPGGSLRLSCAASGFTFSSYAMNWVRQAPGKGLEWVSAISFSGHLTGYADSVKGRFTISRDNSKNTLYLQMNSLRAEDTAVYYCARIQNDPMDVWGQGTLVTVSS
VL: DIELTQPPSVSVAPGQTARISCSGDNLGKKYVQWYQQKPGQAPVLVIYDDSNRPSGIPERFSGSNSGNTATLTISGTQAEDEADYYCSSWDVGSDGWVFGGGTKLTVLGQ
modifications: Antibody modified via affinity maturation; Antibody identified via phage display
- EC50 (PAR-2 [1]): 9.66 nM
- Ratio of EC50 Fab EC50 IgG (PAR-2 [1]): 19.3
